What was measured:
[1] = target: T1, recombinant human IL1RAP protein (human, UniProt Q9NPH3 21-359, limits assumed); assay: ELISA: recombinant IL1RAP protein coated at 1 ug/ml, purified IgG in three-fold serial dilution, HRP-anti-human FC detection, OD450
T1 construct: also called recombinant IL1RAP protein; Interleukin-1 receptor accessory protein

[2] = target: T1, recombinant human IL1RAP protein; assay: ELISA; 1 µg/ml recombinant IL1RAP coated; antibody in three-fold dilutions from 1 µg/ml; HRP-anti-human FC detection
Procedure: Purified antibodies in three-fold serial dilution starting from 1 μg/ml are added to each well. HRP-anti-human FC antibody is used as detection antibody.

[3] = target: T1, recombinant human IL1RAP protein; assay: SPR, Biacore T100
CD3 on T cells = target: T2, CD3 on T cells (Homo sapiens (Human), UniProt P07766 23-207; P04234 22-171; P09693 23-182; P20963 22-164); assay: flow cytometry: T cells incubated with 1D5 in place of the bispecific antibody, then his-tagged recombinant IL1RAP, detection with FITC-anti-his antibody
T2 construct: also called T cell co-receptor CD3

[4] = target: T1, recombinant human IL1RAP protein; assay: method not given

T1 sequence (Q9NPH3 21-359 limits assumed): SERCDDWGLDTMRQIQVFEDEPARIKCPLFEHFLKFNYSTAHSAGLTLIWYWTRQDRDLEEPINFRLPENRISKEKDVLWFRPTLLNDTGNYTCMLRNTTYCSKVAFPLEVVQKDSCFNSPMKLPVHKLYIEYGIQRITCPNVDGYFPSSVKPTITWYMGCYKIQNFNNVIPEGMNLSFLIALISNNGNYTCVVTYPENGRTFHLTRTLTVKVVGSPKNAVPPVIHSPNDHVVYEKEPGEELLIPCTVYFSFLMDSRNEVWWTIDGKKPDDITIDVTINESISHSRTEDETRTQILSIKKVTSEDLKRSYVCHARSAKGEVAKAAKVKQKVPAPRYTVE
T2 sequence (P07766 23-207 limits assumed, chain 1 of 4): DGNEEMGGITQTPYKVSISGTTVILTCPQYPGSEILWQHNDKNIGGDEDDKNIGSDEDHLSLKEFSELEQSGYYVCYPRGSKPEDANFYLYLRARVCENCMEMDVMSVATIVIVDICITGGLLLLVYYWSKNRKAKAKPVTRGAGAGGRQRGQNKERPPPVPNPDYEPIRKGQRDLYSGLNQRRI
T2 sequence (P04234 22-171 limits assumed, chain 2 of 4): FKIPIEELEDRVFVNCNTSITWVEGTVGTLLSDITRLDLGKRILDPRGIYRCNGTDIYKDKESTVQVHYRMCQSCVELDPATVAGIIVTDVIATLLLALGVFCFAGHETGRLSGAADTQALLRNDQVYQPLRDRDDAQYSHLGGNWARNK
T2 sequence (P09693 23-182 limits assumed, chain 3 of 4): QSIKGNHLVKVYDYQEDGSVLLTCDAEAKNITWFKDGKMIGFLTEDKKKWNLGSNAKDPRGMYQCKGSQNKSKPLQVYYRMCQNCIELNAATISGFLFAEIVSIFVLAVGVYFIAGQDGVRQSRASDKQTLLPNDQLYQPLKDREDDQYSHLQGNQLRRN
T2 sequence (P20963 22-164 limits assumed, chain 4 of 4): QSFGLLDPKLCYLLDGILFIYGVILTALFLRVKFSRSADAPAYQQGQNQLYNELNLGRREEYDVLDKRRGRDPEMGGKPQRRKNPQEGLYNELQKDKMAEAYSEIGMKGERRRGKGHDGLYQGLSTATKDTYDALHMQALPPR

EC50 (read off the curve) [1] [µg/mL]	EC50 [2] [ng/mL]	Kd [3] [nM]	binding result (CD3 on T cells)	Kd [4] [nM]	Binder
~0.09	–	–	–	–	2E12 (antibody, V domains shown) VH: GGGLVQPGGSLRLSCEASGFTFSRYWMHWVRQAPGKGLVWVSRIHTDGSSISYADSVKGRFTISRDNAKNTLYLQMNSLRAEDTAVYYCARDIGGGYSYGSVDYWGQGTLVTVSS VL: QPVLTQSPSVSVAPGKTTRITCGGDNIGSKSVHWFQQKPGQAPVLVVFGGGDRPSGIPERFSGSNSGNTATLIISGVEGGDEADYYCQVWDGSTDHYIFGAGTMVTVL
–	4.9	21.2	no binding	~20	human monoclonal antibody 1D5 (anti-IL1RAP) (antibody, V domains shown, also called clone ID5) VH: QVQLVQSGAEVKKPGESLKISCKGSGYSFSSHWIGWVRQMPGKGLEWMGIIYPGDSDTRYSPSFQGQVTISADKSISTAYLQWSSLKASDTAMYYCARGELPGEAYYFDNWGQGTLVTVSS VL: not shown
~0.1	–	–	–	–	D1A4 (antibody, V domains shown) VH: PGPLVQSGAEVKKPGASVKVSCTTSGFPFNMYGFNWVRQAPGQGLEWMGWISAYNGRTNYAQKFQGRVTMTTDTSTSTSYVELESLTSDDTAVYYCARSGKQQLGSAQPLDSWGQGTLIIVSS VL: not shown
